Measurements reported in patent US20090092595A1, “Suppression of sPLA2-integrin binding for treating an inflammatory condition” (REGENTS OF THE UNIVERSITY OF CALIFORNIA, priority 2007, published 2009).

B1: wt sPLA2-IIA (secretory phospholipase A2 group IIA) (enzyme)
chain: NLVNFHRMIKLTTGKEAALSYGFYGCHCGVGGRGSPKDATDRCCVTHDCCYKRLEKRGCGTKFLSYKFSNSGSRITCAKQDSCRSQLCECDKAAATCFARNKTTYNKKYQYYSNKHCRGSTPRC
modifications: FITC label in the flow cytometry assay only (sites not given) ; FITC label (sites not given) in the flow cytometry assay only; the other assays used unlabelled protein.
notes: the form is read from the printed primers; also called FITC-sPLA2-IIA; FITC-labeled sPLA2-IIA; not shown: N-terminal vector-encoded residues with the His tag from the PET28a/amp vector (insert in the Bam HI site)
B2: R74E/R100E: integrin-binding-defective combined mutant of sPLA2-IIA, Arg-74 and Arg-100 mutated to Glu (protein)
chain: NLVNFHRMIKLTTGKEAALSYGFYGCHCGVGGRGSPKDATDRCCVTHDCCYKRLEKRGCGTKFLSYKFSNSGSEITCAKQDSCRSQLCECDKAAATCFAENKTTYNKKYQYYSNKHCRGSTPRC
modifications: left off: small tags and cut ends
B3: H47Q: catalytically inactive mutant of sPLA2-IIA, His-47 mutated to Gln (protein)
chain: NLVNFHRMIKLTTGKEAALSYGFYGCHCGVGGRGSPKDATDRCCVTQDCCYKRLEKRGCGTKFLSYKFSNSGSRITCAKQDSCRSQLCECDKAAATCFARNKTTYNKKYQYYSNKHCRGSTPRC
modifications: left off: small tags and cut ends

Columns and labels:
[1] = biological target: integrin αvβ3 on CHO cells expressing recombinant αvβ3 (β3-CHO) and on proteoglycan-deficient pgs745 cells (β3-745) (human) (UniProt P05106); experiment: cell adhesion to coated sPLA2-IIA, 7E3 at 10 µg/ml in the medium; about the background level
Chain of integrin αvβ3 on CHO cells expressing recombinant αvβ3 (β3-CHO) and on proteoglycan-deficient pgs745 cells (β3-745) (human) (P05106 27-788): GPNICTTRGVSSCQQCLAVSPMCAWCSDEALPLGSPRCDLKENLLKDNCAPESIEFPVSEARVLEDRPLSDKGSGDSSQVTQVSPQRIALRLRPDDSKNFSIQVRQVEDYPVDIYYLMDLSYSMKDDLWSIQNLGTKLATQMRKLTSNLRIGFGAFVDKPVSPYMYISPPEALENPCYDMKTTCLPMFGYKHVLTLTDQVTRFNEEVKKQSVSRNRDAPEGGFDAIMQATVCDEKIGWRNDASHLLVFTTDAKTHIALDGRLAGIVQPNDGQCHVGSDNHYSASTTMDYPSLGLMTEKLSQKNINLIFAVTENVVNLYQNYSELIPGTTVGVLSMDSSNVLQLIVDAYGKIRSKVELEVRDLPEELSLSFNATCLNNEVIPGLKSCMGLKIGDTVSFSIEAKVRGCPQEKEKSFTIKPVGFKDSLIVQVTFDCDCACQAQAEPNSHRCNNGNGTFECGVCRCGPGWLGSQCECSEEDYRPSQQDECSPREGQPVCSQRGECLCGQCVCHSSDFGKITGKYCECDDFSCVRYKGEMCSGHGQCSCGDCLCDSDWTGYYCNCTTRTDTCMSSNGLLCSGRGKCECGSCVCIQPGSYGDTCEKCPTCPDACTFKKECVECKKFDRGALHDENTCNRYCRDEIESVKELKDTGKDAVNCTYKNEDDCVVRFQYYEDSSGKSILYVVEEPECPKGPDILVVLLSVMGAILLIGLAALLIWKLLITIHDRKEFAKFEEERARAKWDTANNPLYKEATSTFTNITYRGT

[2] = Bradley et al. 2005; cited from earlier work
[3] = Bowton et al. 2005; cited from earlier work
[4] = biological target: T1, integrin α4β1 on K562 cells expressing recombinant α4β1 (α4-K562) and on U937 human monocytic lymphoma cells (human, UniProt P13612 34-1032; P05556 21-798); experiment: cell adhesion of α4-K562 cells to coated sPLA2-IIA
T1 construct: whole, on cells; Recombinant α4 in K562 cells; endogenous α4β1 in U937 cells; Treated as one molecule (human α4β1 on cells); also called α4-K562 cells; U937 cells (α4β1+)
T1 sequence (P13612 34-1032, chain 1 of 2): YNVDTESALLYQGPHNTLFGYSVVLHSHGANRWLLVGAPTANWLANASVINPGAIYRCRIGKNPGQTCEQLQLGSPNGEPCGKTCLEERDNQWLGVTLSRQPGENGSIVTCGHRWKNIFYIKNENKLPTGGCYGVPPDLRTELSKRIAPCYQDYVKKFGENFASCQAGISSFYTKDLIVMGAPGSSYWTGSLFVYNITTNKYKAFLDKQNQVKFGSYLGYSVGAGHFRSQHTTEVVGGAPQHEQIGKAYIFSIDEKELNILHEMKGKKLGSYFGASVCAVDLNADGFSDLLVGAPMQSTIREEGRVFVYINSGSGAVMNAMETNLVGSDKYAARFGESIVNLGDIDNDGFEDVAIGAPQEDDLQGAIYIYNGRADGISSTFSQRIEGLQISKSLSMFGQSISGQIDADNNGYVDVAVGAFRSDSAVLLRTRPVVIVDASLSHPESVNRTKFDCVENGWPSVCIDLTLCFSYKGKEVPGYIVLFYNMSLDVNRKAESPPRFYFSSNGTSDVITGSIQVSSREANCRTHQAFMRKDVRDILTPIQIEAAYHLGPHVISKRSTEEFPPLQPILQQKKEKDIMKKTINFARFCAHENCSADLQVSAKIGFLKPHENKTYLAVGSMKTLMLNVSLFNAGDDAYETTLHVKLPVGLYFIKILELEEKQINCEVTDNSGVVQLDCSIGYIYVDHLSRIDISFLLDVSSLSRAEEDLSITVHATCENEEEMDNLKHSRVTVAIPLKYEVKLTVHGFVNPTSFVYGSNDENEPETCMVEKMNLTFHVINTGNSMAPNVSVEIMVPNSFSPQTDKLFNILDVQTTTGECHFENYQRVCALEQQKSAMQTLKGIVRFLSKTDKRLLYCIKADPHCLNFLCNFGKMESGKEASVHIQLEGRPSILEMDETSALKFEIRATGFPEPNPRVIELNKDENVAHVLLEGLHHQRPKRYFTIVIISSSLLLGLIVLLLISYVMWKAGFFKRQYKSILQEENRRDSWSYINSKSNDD
T1 sequence (P05556 21-798, chain 2 of 2): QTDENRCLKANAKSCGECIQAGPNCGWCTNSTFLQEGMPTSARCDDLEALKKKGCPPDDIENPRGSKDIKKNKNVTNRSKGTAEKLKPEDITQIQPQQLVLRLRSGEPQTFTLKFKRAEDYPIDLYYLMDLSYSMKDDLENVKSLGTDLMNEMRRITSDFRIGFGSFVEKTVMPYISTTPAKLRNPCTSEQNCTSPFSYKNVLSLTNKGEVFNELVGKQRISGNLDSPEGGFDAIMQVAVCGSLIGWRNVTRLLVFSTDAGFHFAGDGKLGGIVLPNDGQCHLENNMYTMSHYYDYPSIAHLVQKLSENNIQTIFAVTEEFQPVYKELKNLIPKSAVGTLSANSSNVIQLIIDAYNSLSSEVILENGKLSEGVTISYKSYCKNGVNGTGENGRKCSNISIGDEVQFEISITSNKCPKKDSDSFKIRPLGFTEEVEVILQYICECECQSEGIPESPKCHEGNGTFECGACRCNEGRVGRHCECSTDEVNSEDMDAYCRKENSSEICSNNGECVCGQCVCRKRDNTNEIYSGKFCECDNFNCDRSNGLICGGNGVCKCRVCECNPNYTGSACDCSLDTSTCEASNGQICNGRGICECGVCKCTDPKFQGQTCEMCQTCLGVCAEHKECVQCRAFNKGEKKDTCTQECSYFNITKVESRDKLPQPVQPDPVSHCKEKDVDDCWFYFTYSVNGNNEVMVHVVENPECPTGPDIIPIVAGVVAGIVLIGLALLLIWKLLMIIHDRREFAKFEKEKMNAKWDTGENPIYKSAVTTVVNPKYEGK

[5] = biological target: T2, recombinant soluble integrin αvβ3 (UniProt P06756 31-992; P05106 27-718); experiment: SPR (Biacore), soluble αvβ3 amine-coupled to CM5 chip, sPLA2-IIA injected, 1 mM Mn2+, 1:1 binding with drifting baseline model
T2 construct: Soluble heterodimer; whole entries named only; also called soluble αvβ3; soluble recombinant αvβ3
T2 sequence (P06756 31-992, chain 1 of 2): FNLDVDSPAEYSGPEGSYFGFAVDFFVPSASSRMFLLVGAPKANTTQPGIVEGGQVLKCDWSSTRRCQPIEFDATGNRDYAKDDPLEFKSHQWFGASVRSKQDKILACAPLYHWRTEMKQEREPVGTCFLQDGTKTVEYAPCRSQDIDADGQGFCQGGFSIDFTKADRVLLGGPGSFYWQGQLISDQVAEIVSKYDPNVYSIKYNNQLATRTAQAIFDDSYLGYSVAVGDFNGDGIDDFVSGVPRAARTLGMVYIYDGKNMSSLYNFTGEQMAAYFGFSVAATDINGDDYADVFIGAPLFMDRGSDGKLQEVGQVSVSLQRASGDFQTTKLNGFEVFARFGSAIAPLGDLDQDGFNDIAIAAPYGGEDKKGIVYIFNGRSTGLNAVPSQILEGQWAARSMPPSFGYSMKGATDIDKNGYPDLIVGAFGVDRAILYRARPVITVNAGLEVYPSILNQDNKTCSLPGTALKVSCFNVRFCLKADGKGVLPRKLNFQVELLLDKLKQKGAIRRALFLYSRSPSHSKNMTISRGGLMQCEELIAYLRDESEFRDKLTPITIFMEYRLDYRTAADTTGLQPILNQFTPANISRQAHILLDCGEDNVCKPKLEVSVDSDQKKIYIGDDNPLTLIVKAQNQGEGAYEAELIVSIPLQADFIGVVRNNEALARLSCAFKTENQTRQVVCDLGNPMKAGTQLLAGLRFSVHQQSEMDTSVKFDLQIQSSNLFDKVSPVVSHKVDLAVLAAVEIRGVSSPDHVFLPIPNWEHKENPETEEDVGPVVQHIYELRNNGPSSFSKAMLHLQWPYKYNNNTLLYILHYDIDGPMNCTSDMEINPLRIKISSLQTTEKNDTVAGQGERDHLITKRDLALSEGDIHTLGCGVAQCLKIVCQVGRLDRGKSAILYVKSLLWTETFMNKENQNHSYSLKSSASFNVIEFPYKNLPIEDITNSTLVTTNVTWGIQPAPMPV
T2 sequence (P05106 27-718, chain 2 of 2): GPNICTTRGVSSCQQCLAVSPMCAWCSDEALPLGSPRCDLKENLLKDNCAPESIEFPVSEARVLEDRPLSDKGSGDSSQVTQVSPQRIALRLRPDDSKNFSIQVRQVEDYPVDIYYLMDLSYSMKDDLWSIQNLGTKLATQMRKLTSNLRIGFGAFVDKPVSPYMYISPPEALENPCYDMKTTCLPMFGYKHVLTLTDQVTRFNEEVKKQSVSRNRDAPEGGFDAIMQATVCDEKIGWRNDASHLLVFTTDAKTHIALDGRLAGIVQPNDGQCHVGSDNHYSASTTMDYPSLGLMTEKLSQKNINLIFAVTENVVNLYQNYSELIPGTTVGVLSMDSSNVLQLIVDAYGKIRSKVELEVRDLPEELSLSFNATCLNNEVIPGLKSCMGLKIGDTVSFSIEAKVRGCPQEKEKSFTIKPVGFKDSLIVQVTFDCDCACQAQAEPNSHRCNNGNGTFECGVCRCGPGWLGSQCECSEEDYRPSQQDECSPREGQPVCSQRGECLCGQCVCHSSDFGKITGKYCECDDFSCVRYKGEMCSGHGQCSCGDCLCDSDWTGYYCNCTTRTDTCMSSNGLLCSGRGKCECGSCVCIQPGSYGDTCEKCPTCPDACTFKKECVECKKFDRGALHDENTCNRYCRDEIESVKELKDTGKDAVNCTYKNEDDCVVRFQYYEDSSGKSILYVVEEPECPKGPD
Protocol: The mutant proteins were tested for binding to soluble integrin αvβ3.
Surface plasmon resonance study Recombinant soluble integrin αvβ3 was immobilized to Biacore Sensor chip CM5 (Biacore, Piscataway, N.J.) by the standard amine coupling method. […] Then the sensor chip was washed with the running buffer alone at the same flow rate for another 5 min (the dissociation phase). Two consecutive one-minute injections of 0.5 M, pH 8 EDTA solution at the same flow rate were used to regenerate the chip for another cycle of injection. The resonance unit elicited from the reference flow cell was subtracted from the resonance unit elicited from the integrin flow cell to eliminate the non-specific protein-flow cell interaction and the bulk refractive index effect. The recorded binding curves were fitted with the “1:1 binding with drifting baseline model” by using the Biaevaluation Version 4.1.

[6] = biological target: T3, soluble integrin αvβ3 (Homo sapiens, UniProt P05106+P06756); experiment: Binding of soluble αvβ3 to immobilized sPLA2-IIA (ELISA-type assay); details: immobilized protein, 20 μg/ml coating
T3 construct: Recombinant soluble αvβ3 was synthesized as previously described; made in house
T3 sequence (P06756 31-992 limits assumed): as the sequence (P06756 31-992, chain 1 of 2) above
T3 sequence (P05106 27-718 limits assumed): as the sequence (P05106 27-718, chain 2 of 2) above
Protocol: Binding of soluble αvβ3 to immobilized sPLA2-IIA sPLA2-IIA was immobilized to wells of 96 well microtiter plates and the remaining protein-binding sites were blocked by BSA as described (Mori, S. et al., J Biol Chem, 283:18066-18075 (2008)). Soluble recombinant αvβ3 at 5 μg/ml in Hepes-Tyrodes buffer supplemented with 1 mM MnCl2 was added to the well and incubated for 2 h. Bound αvβ3 was measured using anti-integrin β3 (mAb AV-10) followed by HRP-conjugated goat anti-mouse IgG and peroxidase substrates.

[7] = tested on: αvβ3-K562 cells; experiment: Proliferation of αvβ3-K562 cells (MTS assay); assay type: cell-based, human; details: serum-starved 48 h, stimulated 48 h
Protocol: (§1) Cells were serum-starved for 48 h and stimulated with sPLA2-IIA for 48 h. Cell proliferation was determined by MTS assays. Data is shown as means+/−SEM of triplicate experiments. α4- and αvβ3-K562 cells proliferated faster than mock-K562 cells. […] Serum-starved cells were stimulated with wt or mutant sPLA2-IIA (0.5 μg/ml) for 48 h. Data is shown as means+/−SEM of triplicate experiments. α4-K562 and αvβ3-K562 cells grew faster than mock K562 cells with wt and H47Q sPLA2-IIA (*P<0.05 by t-test).
(§2) Cell proliferation and MAP kinase activation K562 cells and human monocytic lymphoma U937 cells were maintained in RPM11640 medium supplemented with 10% FCS. Cells were plated in 96-well plates (1×10^4 cells/well), and serum-starved for 48 h at 37° C. in 5% CO2 atmosphere. Cells were then treated with or without sPLA2-IIA in medium without serum for 48 h. Cell proliferation was determined by MTS assays using the Aqueous Cell Proliferation Assay Kit (Promega). For MAP kinase activation assays, cells were serum starved in RPMI1640 medium supplemented with 0.4% FCS for 24 h, and stimulated with Wt and mutant sPLA2-IIA (0.5 μg/ml) for 10 min at 37° C. ERK1/2 activation was measured as described (Mori, S. et al., J Biol Chem, in press (2008)).

[8] = PLA2 activity by arachidonoyl-Thio-PC hydrolysis; assay type: biochemical; details: effect of mutation on catalytic activity
Protocol: Other methods We performed docking simulation of interaction between sPLA2-IIA and integrin αvβ3 using the AutoDock3 as previously described (Mori, S. et al., J Biol Chem, in press (2008)). Adhesion assays were performed as described previously (Eto, K. et al., J. Biol. Chem., 277:17804-17810 (2002)). mAb 7E3 was used at 10 μg/ml. We assayed PLA2 activity by arachidonoyl-Thio-PC hydrolysis (Cayman Chemicals, Ann Arbor, Mich.) as described (Reynolds, L. J. et al., Anal. Biochem., 217:25-32 (1994)).

[9] = tested on: U937 human monocytic lymphoma cells; experiment: Proliferation of U937 cells (MTS assay); assay type: cell-based; details: serum-starved 48 h, treated 48 h
Protocol: (§3) U937 cells (αvβ3+, α4β1+) were plated in wells of 96-well plates (10,000 cells/well), and serum-starved for 48 h. After treatment with wt or mutant sPLA2-IIA for 48 h, we measured cell proliferation by MTS assays. […] U937 cells were serum-starved for 24 h, and stimulated with wt and mutant sPLA2-IIA (0.5 μg/ml) for 10 min at 37° C. Cell lysates were analyzed by western blotting with anti-phospho ERK1/2 or anti-ERK1/2 antibodies. The blot is representative of three independent experiments.
as §2

[10] = tested on: ERK1/2; experiment: MAP kinase (ERK1/2) activation in U937 cells, western blotting; assay type: cell-based, human; details: 0.5 μg/ml, 10 min, 37° C.
Protocol: as §3, §2

[11] = tested on: α4-K562 cells; experiment: Proliferation of α4-K562 cells (MTS assay); assay type: cell-based, human; details: serum-starved 48 h, stimulated 48 h
Protocol: as §1, §2

Molecule | therapeutic effect in rheumatoid arthritis [2] | therapeutic effect in asthma [3] | binding to soluble αvβ3 [6] | proliferation of αvβ3-K562 cells [7] | PLA2 activity [8] | proliferation of monocytic U937 cells [9] | ERK1/2 activation in U937 cells [10] | proliferation of α4-K562 cells [11] | further results
mAb 7E3 (specific to human β3 subunit, function blocking) (antibody) | – | – | – | – | – | – | – | – | adhesion of β3-CHO cells to immobilized sPLA2-IIA in the presence of the antibody (%) [1]: 30%
CCc1c(C(=O)C(N)=O)c2c(OCC(=O)[O-])cccc2n1Cc1ccccc1.[Na+] [S-5920/LY315920Na] | failed to demonstrate a significant therapeutic effect | failed to demonstrate a significant therapeutic effect | – | – | – | – | – | – | –
CCc1c(C(=O)C(N)=O)c2c(OCC(=O)OC)cccc2n1Cc1ccccc1 [S-3013/LY333013] | failed to demonstrate a significant therapeutic effect | failed to demonstrate a significant therapeutic effect | – | – | – | – | – | – | –
B1 | – | – | – | – | – | – | – | – | binding result [4]: binds; Kd [5]: 211 nM
B2 | – | – | effectively reduced the binding | did not induce proliferation | did not affect PLA2 activity | did not | did not induce | did not induce proliferation | –
B3 | – | – | did not affect the binding | induced proliferation | reduced PLA2 activity | induced robust proliferation | induced | induced proliferation | –
